Data from patent US10472401B2, “Peptides and combination of peptides for use in immunotherapy against ovarian cancer and other cancers” (immatics biotechnologies GmbH, priority 2015, dated 2019).

Biological target: HLA-A*02:01 (Homo sapiens, UniProt P04439, D140Y/D185E/D98H/E176V/E277Q/G131W/G231S/I119V/I121R/I166T/I218V/L300P/L318F/N151K/N90K/P208A/P217A/Q86G/Q94H/R138H/R169H/T345S)
Experiment: MHC binding assay (UV-ligand exchange, ELISA of stabilized MHC complexes)
Conditions: MHC class I binding score; binding to HLA-A*02:01 ranged by peptide exchange yield (UV-ligand exchange, ELISA)
Procedure, shortened: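 Peptide-MHC complexes made by UV-ligand exchange, cleaving a UV-sensitive placeholder peptide and replacing it with the test peptide. Exchange yield measured by ELISA: streptavidin-captured monomers (diluted 100-fold, 1 h, 37 °C) detected with HRP anti-β2m and TMB, absorbance at 450 nm.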

Peptide exchange	Substance
″+++″ (≥50% = +++)	200 (LLFGSVQEV; listed as Homo sapiens) [compound 200]
″+++″ (≥50% = +++)	201 (RLVDYLEGI; listed as Homo sapiens) [compound 201]
″+++″ (≥50% = +++)	202 (ALLDQQGSRWTL; listed as Homo sapiens) [compound 202]
″++″ (≥20% = ++)	204 (KIAENVEEV; listed as Homo sapiens) [compound 204]
″+++″ (≥50% = +++)	205 (SLYPGTETMGL; listed as Homo sapiens) [compound 205]
″+++″ (≥50% = +++)	206 (VLQEGKLQKLAQL; listed as Homo sapiens) [compound 206]
″++″ (≥20% = ++)	207 (GLTSTNAEV; listed as Homo sapiens) [compound 207]
″+++″ (≥50% = +++)	208 (KISPVTFSV; listed as Homo sapiens) [compound 208]
″++″ (≥20% = ++)	209 (KLIESKHEV; listed as Homo sapiens) [compound 209]
″++″ (≥20% = ++)	210 (LLLNAVLTV; listed as Homo sapiens) [compound 210]
″++″ (≥20% = ++)	211 (LLWPGAALL; listed as Homo sapiens) [compound 211]
″++″ (≥20% = ++)	212 (ALWDQDNLSV; listed as Homo sapiens) [compound 212]
″+++″ (≥50% = +++)	214 (FLLDLDPLLL; listed as Homo sapiens) [compound 214]
″+++″ (≥50% = +++)	215 (QLINHLHAV; listed as Homo sapiens) [compound 215]
″+++″ (≥50% = +++)	216 (NLWEDPYYL; listed as Homo sapiens) [compound 216]
″++″ (≥20% = ++)	217 (ALIHPVSTV; listed as Homo sapiens) [compound 217]
″++″ (≥20% = ++)	218 (SALEELVNV; listed as Homo sapiens) [compound 218]
″+++″ (≥50% = +++)	219 (KLSDIGITV; listed as Homo sapiens) [compound 219]
″++″ (≥20% = ++)	220 (LLQKFVPEI; listed as Homo sapiens) [compound 220]
″++″ (≥20% = ++)	221 (ALYEEGLLL; listed as Homo sapiens) [compound 221]
″++″ (≥20% = ++)	222 (NLIENVQRL; listed as Homo sapiens) [compound 222]
″+++″ (≥50% = +++)	223 (ALLENIALYL; listed as Homo sapiens) [compound 223]
″+++″ (≥50% = +++)	224 (TLIDAQWVL; listed as Homo sapiens) [compound 224]
″+++″ (≥50% = +++)	225 (SLLKVLPAL; listed as Homo sapiens) [compound 225]
″++″ (≥20% = ++)	226 (MLYVVPIYL; listed as Homo sapiens) [compound 226]
″++″ (≥20% = ++)	227 (ALMNTLLYL; listed as Homo sapiens) [compound 227]

Peptide exchange	Substance
″++″ (≥20% = ++)	228 (AMQEYIAVV; listed as Homo sapiens) [compound 228]
″++″ (≥20% = ++)	229 (RLPGPLGTV; listed as Homo sapiens) [compound 229]
″+″ (≥10% = +)	230 (ILVDWLVEV; listed as Homo sapiens) [compound 230]
″++″ (≥20% = ++)	231 (FLSPQQPPLLL; listed as Homo sapiens) [compound 231]
″++″ (≥20% = ++)	232 (ALLEAQDVELYL; listed as Homo sapiens) [compound 232]
″++″ (≥20% = ++)	233 (VLSETLYEL; listed as Homo sapiens) [compound 233]
″++″ (≥20% = ++)	234 (ALMEDTGRQML; listed as Homo sapiens) [compound 234]
″++++″ (≥75% = ++++)	235 (YLNDLHEVLL; listed as Homo sapiens) [compound 235]
″+++″ (≥50% = +++)	236 (GLLEAKVSL; listed as Homo sapiens) [compound 236]
″++++″ (≥75% = ++++)	237 (ALLEASGTLLL; listed as Homo sapiens) [compound 237]
″+++″ (≥50% = +++)	238 (YLISFQTHI; listed as Homo sapiens) [compound 238]
″+++″ (≥50% = +++)	239 (AAFAGKLLSV; listed as Homo sapiens) [compound 239]
″+++″ (≥50% = +++)	240 (ILLEQAFYL; listed as Homo sapiens) [compound 240]
″+++″ (≥50% = +++)	241 (SLVEVNPAYSV; listed as Homo sapiens) [compound 241]
″++″ (≥20% = ++)	242 (AIAYILQGV; listed as Homo sapiens) [compound 242]
″+++″ (≥50% = +++)	243 (LLLNELPSV; listed as Homo sapiens) [compound 243]
″+++″ (≥50% = +++)	244 (SLFGGTEITI; listed as Homo sapiens) [compound 244]
″+++″ (≥50% = +++)	245 (SMIDDLLGV; listed as Homo sapiens) [compound 245]
″+++″ (≥50% = +++)	246 (LLWEVVSQL; listed as Homo sapiens) [compound 246]
″+++″ (≥50% = +++)	248 (FLFPNQYVDV; listed as Homo sapiens) [compound 248]
″+++″ (≥50% = +++)	249 (LLDGFLVNV; listed as Homo sapiens) [compound 249]
″+++″ (≥50% = +++)	250 (ALSEEGLLVYL; listed as Homo sapiens) [compound 250]
″++″ (≥20% = ++)	251 (ALYTGFSILV; listed as Homo sapiens) [compound 251]
″+++″ (≥50% = +++)	252 (LLIGTDVSL; listed as Homo sapiens) [compound 252]
″++″ (≥20% = ++)	253 (GLDAATATV; listed as Homo sapiens) [compound 253]
″+++″ (≥50% = +++)	254 (TLLAFIMEL; listed as Homo sapiens) [compound 254]

Peptide exchange	Substance
″+++″ (≥50% = +++)	255 (VLASYNLTV; listed as Homo sapiens) [compound 255]
″+++″ (≥50% = +++)	256 (FLPPEHTIVYI; listed as Homo sapiens) [compound 256]
″+++″ (≥50% = +++)	257 (SIFSAFLSV; listed as Homo sapiens) [compound 257]
″++″ (≥20% = ++)	258 (ELAERVPAI; listed as Homo sapiens) [compound 258]
″++″ (≥20% = ++)	261 (YVLEFLEEI; listed as Homo sapiens) [compound 261]
″+++″ (≥50% = +++)	262 (LLWGDLIWL; listed as Homo sapiens) [compound 262]
″+++″ (≥50% = +++)	263 (LLVSNLDFGV; listed as Homo sapiens) [compound 263]
″+++″ (≥50% = +++)	264 (SLQEQLHSV; listed as Homo sapiens) [compound 264]
″++″ (≥20% = ++)	265 (LLFGGTKTV; listed as Homo sapiens) [compound 265]
″+++″ (≥50% = +++)	266 (KITDTLIHL; listed as Homo sapiens) [compound 266]
″+++″ (≥50% = +++)	267 (ALQDFLLSV; listed as Homo sapiens) [compound 267]
″++″ (≥20% = ++)	269 (RVLEVGALQAV; listed as Homo sapiens) [compound 269]
″++″ (≥20% = ++)	270 (LLLDEEGTFSL; listed as Homo sapiens) [compound 270]
″+++″ (≥50% = +++)	271 (LVYPLELYPA; listed as Homo sapiens) [compound 271]
″+++″ (≥50% = +++)	272 (ALGNTVPAV; listed as Homo sapiens) [compound 272]
″++″ (≥20% = ++)	273 (NLFQSVREV; listed as Homo sapiens) [compound 273]
″++″ (≥20% = ++)	274 (SLLFSLFEA; listed as Homo sapiens) [compound 274]
″++″ (≥20% = ++)	275 (YLVYILNEL; listed as Homo sapiens) [compound 275]
″+++″ (≥50% = +++)	276 (ALFTFSPLTV; listed as Homo sapiens) [compound 276]
″++″ (≥20% = ++)	277 (LLPPLESLATV; listed as Homo sapiens) [compound 277]
″++″ (≥20% = ++)	278 (QLLDVVLTI; listed as Homo sapiens) [compound 278]
″++″ (≥20% = ++)	279 (ALWGGTQPLL; listed as Homo sapiens) [compound 279]
″+++″ (≥50% = +++)	280 (VLPDPEVLEAV; listed as Homo sapiens) [compound 280]
″+++″ (≥50% = +++)	281 (ILRESTEEL; listed as Homo sapiens) [compound 281]
″+++″ (≥50% = +++)	282 (LLADVVPTT; listed as Homo sapiens) [compound 282]
″+++″ (≥50% = +++)	284 (ILLSQTTGV; listed as Homo sapiens) [compound 284]
